Experimental data: paper PMC4659947, “Asparagine requirement in Plasmodium berghei as a target to prevent malaria transmission and liver infections” (Nature Communications, 2015)

Substrate: N[C@@H](CC(=O)O)C(=O)O
Experiment: purified protein
Type: biochemical, Plasmodium berghei
Conditions: 5 mM glutamine as amino donor, 10 mM ATP, 10 mM MgCl2, 50 mM Tris pH 8.0

B1: PbAS (recombinant P. berghei asparagine synthetase) (Plasmodium berghei ANKA) (protein)
chain: MCGILAIFHSSIETNRLRRKALRLSKILRHRGPDWNGIVVEENGDGTTNVLTHERLSIVDVLSGQQPLYDDKKEICLTINGEIYNHLELRKLVKQDILDALKSKSDCAIIPNLYKIYKEKLPCMLDGIFAGVISDKKYNTFFAFRDPIGICPLYIGYAADGSIWFASEFKALRIYCVRYVAFPPGHYYMCNNGKGEFVRYYNPNWWKLNSPIPNNKIDLEKIRITLENAVIKRLMGDVPFGVLLSGGLDSSIIASIISRHLKSIQTGTINNINGACVGKNNKNLNALKSFSIGLKDSPDLKAAKEVSDFLNTDHTEFHFTVDQGIDTLHDVIYHIETYDITTIRASTPMYILSRLIKSSCIKMVLSGEGSDEIFGGYLYFHKAPNAEEFHRELQRKIHDLHIYDVLRANKSTMAFGIEARVPFLDLEFLDLVMNIDPKEKMCSNNRIEKDILRRAFSGYLPDHILYRQKEQFSDGVGYNWIDGLKEYAEKKVSDAQFSRAPFLFPYNTPKTKEAYLYRCIFYQCFPEQCAQEFVPEGPSIACSTSKAIEWDEQFKVNPDQSGRYVLDVHKHSKNIEDIKAA
notes: full-length cDNA without stop codon in pET-20b(+), BamHI/XhoI, C-terminal 6xHis kept, E. coli Rosetta2DE3pLysS, Ni-NTA, 67 kDa; domains 1-202 and 203-581
Km: 260 ± 50 µM
